The test system of this data set is MS2 coat protein. As to the kind of experiment: apparent KD of MS2 coat protein; higher = weaker reporter binding. Particulars: Eterna round: R107. The essentials:
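Apparent KD per design is the median of normalised cluster binding-curve fits. Designed RNA switches transcribed on-chip from Illumina sequencing clusters were titrated with SNAP-549-labelled MS2 coat protein in twofold steps from 0.7 or 1.5 nM to 3 µM, with 0.8–1.5 h down to 10–20 min per step. Buffer: 100 mM Tris-HCl pH 7.5, 80 mM KCl, 4 mM MgCl2, without or with constant ligand.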

Where [1] appears, read: input ligand: theophylline 20 uM.
The mark [2] stands for this setting: input ligand: tryptophan 2.4 mM.
Setting [3] is: input ligand: theophylline 2 mM.

We go through 17 sequences from the supplement of paper PMC9170038.

“CAAAUAGACCACGAUACCAGAACACAAGGAGUAAUAUCAAACAUGAGGAUCACCCAUGUCUUCCCUUGGCAGCGUAGCACGGAGU [theeternabot_exclusion_MS2_Theo_B_23]”: the “apparent KD of MS2 coat protein” value is, setting by setting: (input ligand: arginine 13.2 mM) 13.5 nM; under setting [1], 15.2 nM; under setting [2], 11 nM.

For “CAAUAUAUAACGGCCGCCACUUACUCAUGAGGUAACAACAUGAGGAUCACCCAUGUUUGAGGAUCAAGGACCGGGUUAUAUAUUG [AstrosSSTry#19]”, the “apparent KD of MS2 coat protein” value worked out at 29.3 nM (input ligand: arginine 13.2 mM); 28 nM (input ligand: none); 33 nM under setting [1]; 27.1 nM under setting [3]; 18.4 nM under setting [2].

As for “CAAUAUAUAUGAAGGAGCGACAUGAGGAUCACCCAUGUCUACCACGUCGAAAGACGCUCAUGUCAGGUAGGUCGCAUAUAUAUUG [Astros-Eli-mod4]”, the “apparent KD of MS2 coat protein” value is 71.9 nM (input ligand: arginine 13.2 mM); 102 nM (input ligand: none); 129 nM under setting [1]; 144 nM under setting [3]; 90.9 nM under setting [2].

For “CACAUGAGGAUCACCCAUGUCUGAACUGAAGGAGCGCUAAACAAGGCAGGUAGGUCGCGGAAUCCCGUGUGCAUAUGCACACGGG [9.Z]”, the “apparent KD of MS2 coat protein” value worked out at 24.1 nM (input ligand: arginine 13.2 mM); 15.6 nM (input ligand: none); 24.1 nM under setting [1]; 20.4 nM under setting [3]; 18.9 nM under setting [2].

Consider “CACAUGAGGAUCACCCAUGUCUGAACUGAAGGAGCGCUAAACAAGGCAGGUAGGUCGCGGAAUUUUGUGUGCAUAUGCAUAUGGG [9.N]”, for which the “apparent KD of MS2 coat protein” value (input ligand: arginine 13.2 mM) came to 21.6 nM; the “apparent KD of MS2 coat protein” value (input ligand: none) turned out to be 24.5 nM; the “apparent KD of MS2 coat protein” value under setting [1] was 36.3 nM; the “apparent KD of MS2 coat protein” value under setting [3] was 26.9 nM; the “apparent KD of MS2 coat protein” value under setting [2] was found to be 24.8 nM.

Turning to “CACAUGAGGAUCACCCAUGUCUGAACUGAAGGAGCGCUAAAUAAGGCAGGUAGGUCGCGGAAUCUUGUGUGCAUAUGCACACGGG [9.T]”, the “apparent KD of MS2 coat protein” value reads like this: (input ligand: arginine 13.2 mM) 18.2 nM; (input ligand: none) 20.5 nM; under setting [1], 28.5 nM; under setting [3], 31.2 nM; under setting [2], 25 nM.

As to “CACGGCCAUGAGGAUCACCCAUGGAAUAAUCGAGGACCGGUACGGCCGCCACUCGUGGACCGUGACCUGUACGAAAAGUGCAGGA”, the “apparent KD of MS2 coat protein” value is, setting by setting: (input ligand: arginine 13.2 mM) 20.8 nM; (input ligand: none) 26.5 nM; under setting [1], 31.7 nM; under setting [3], 26.9 nM; under setting [2], 10 nM.

“CAGAGCUACCGGGAUACCAGAAAUGGUAUUCCUUAAUUUCUUACAUGAGGAUCACCCAUGUUCCCUUGGCAGCUUGGUAGCUCUG [ETHB #8]”: the “apparent KD of MS2 coat protein” value was 48.6 nM (input ligand: arginine 13.2 mM), 107 nM under setting [1] and 83.7 nM under setting [2].

For the sequence “CAGCACAUGAGGAUCACCCAUGUGAGGGAUACCAGCUCAGGCGUGGGCCCUUGGCAGCUCUCUGGCUGACGAAAGUCAGCCUGUG [#20 SameState-TheophyllineA]”, the “apparent KD of MS2 coat protein” value runs as follows: (input ligand: arginine 13.2 mM) 14.4 nM; under setting [1], 24.2 nM; under setting [2], 13.6 nM.

Take “CAGGUCAGGGCGGCCGCCACUGUGGCUACGGUACAUGAGGAUCACCCAUGUUUGUGGUUGAUCUACAGGACCGGGCCCUAACACG [Beabe]”: the “apparent KD of MS2 coat protein” value by setting is: (input ligand: arginine 13.2 mM) 1080 nM; (input ligand: none) 430 nM; under setting [1], 214 nM; under setting [3], 757 nM; under setting [2], 126 nM.

Take “CAUACUUGAUCCUAUGAGCCUAUUUGUGAUACCAGCAUCUAAAUUUGCCCUUGGCAGCACUAACAUGAGGAUCACCCAUGUUAUA [JR_Nu_ExcTheophyA_Sub028]”: the “apparent KD of MS2 coat protein” value (input ligand: arginine 13.2 mM) was 23.7 nM, the “apparent KD of MS2 coat protein” value under setting [1] was determined as 42.5 nM and the “apparent KD of MS2 coat protein” value under setting [2] is 37 nM.

With “CAUAUAUAUAGAAGGAGCGACAUGAGGAUCACCCAUGUCUACCACGUCGAAAGACGCUCAUGUCAGGUAGGUCGCUAUAUAUAUG [Astros-Eli-mod2]”, the “apparent KD of MS2 coat protein” value stood at 56.2 nM (input ligand: arginine 13.2 mM); 115 nM (input ligand: none); 154 nM under setting [1]; 198 nM under setting [3]; 147 nM under setting [2].

Regarding “CAUGACAUGAGGAUCACCCAUGUAUCCAGUCGAGGACCGGUACGGCCGCCACUCGGUGCCUUCAAAUUUACAGACAGGUGACAGG [theeternabot_sameState_MS2_Trp_A_30]”, the “apparent KD of MS2 coat protein” value is 26.2 nM (input ligand: arginine 13.2 mM), 42.9 nM under setting [1] and 39.6 nM under setting [3].

As to “CCAGCCCUUCUAGAUACCAGCUUUCAAUAUAAGACAACUCACAUGAGGAUCACCCAUGUUAGCCCUUGGCAGCUAAGAUCCACAA [theeternabot_exclusion_MS2_Theo_B_32]”, the “apparent KD of MS2 coat protein” value reads like this: (input ligand: arginine 13.2 mM) 46.6 nM; under setting [1], 67 nM; under setting [2], 48.5 nM.

Consider “CCAUCUACAUCGGCCGCCACUGAACCAAGGAGACAUGAGGAUCACCCAUGUAUGGGAAACCAUCAUAGGACCGGGAUGAUCUACC [doubleHook]”, for which the “apparent KD of MS2 coat protein” value is, setting by setting: (input ligand: arginine 13.2 mM) 95.2 nM; under setting [1], 336 nM; under setting [3], 415 nM.

In the case of “CCAUGCAGGUCGGCCGCCACUACACACAUGAGGAUCACCCAUGUAGUUACUGGGUGAAGUGGCAGUAGGACCGGGACCUGCACAC [Brourdmod20]”, the “apparent KD of MS2 coat protein” value (input ligand: arginine 13.2 mM) was found to be 84 nM; the “apparent KD of MS2 coat protein” value (input ligand: none) worked out at 289 nM; the “apparent KD of MS2 coat protein” value under setting [1] was found to be 446 nM; the “apparent KD of MS2 coat protein” value under setting [3] is 601 nM; the “apparent KD of MS2 coat protein” value under setting [2] worked out at 335 nM.

For the sequence “CCCAACAGUGAUGCCGGUGUUGGUGGUGAUACCAGCGUCUUAUGGCGCCCUUGGCAGCACCAACAUGAGGAUCACCCAUGUGAAA [Beenerveor]”, the “apparent KD of MS2 coat protein” value (input ligand: arginine 13.2 mM) was found to be 19.8 nM, the “apparent KD of MS2 coat protein” value under setting [1] worked out at 113 nM and the “apparent KD of MS2 coat protein” value under setting [2] is 36.9 nM.
